{"source": "patent US20170088605A1", "binders": {"B1": {"name": "P46F4 (antibody, V domains shown)", "VH": "QVQLQESGPGLVKPSQTLSLTCTVSGGSISNGGYYWSWIRLHPGKGLEWIGCIHYSGGTYYNPSLKSRVTVSLDTSKNQFSLNLISVTAADTAIYFCARALIAAPGISDWFDPWGQGTLVTVSS", "VL": "QSVLTQPPSVSAAPGQKVTISCSGSNSNVGHNYVSWYQQLPGTAPKLLIYDNNKRPSGIPDRFSGSKSGTSATLGITGLQTGDEADYYCGTWDSSLSAGVFGGGTKVTVLG"}}, "key": {"[1]": {"biological_target": "BKV serotype I infectious virus (VP1) (BK virus serotype I) (UniProt P03088)", "sequence (P03088 whole entry)": "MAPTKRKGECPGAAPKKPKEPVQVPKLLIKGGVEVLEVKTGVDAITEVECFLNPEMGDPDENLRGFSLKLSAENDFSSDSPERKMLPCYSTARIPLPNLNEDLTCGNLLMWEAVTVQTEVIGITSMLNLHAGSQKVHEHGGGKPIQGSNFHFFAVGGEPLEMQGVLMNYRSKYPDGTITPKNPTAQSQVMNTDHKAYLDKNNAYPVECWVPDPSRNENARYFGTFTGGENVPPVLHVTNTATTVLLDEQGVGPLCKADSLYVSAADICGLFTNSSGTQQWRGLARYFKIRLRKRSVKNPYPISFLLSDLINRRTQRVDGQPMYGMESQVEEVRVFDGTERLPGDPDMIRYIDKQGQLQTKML"}, "[2]": {"biological_target": "BKV serotype II chimeric infectious virus (VP1 of isolate SB) (BK virus serotype II)"}, "[3]": {"biological_target": "BKV serotype III chimeric infectious virus (VP1 of isolate AS) (BK virus serotype III)"}, "[4]": {"biological_target": "BKV serotype IV chimeric infectious virus (VP1 of strain ITA-4) (BK virus serotype IV)"}}, "data": [{"binder": "B1", "values": [{"measurement": "neutralization EC50", "setting": "[1]", "result": 0.004, "unit": "µg/mL"}, {"measurement": "neutralization EC90", "setting": "[1]", "result": 0.29, "unit": "µg/mL"}, {"measurement": "neutralization EC50", "setting": "[2]", "result": "> 100", "unit": "µg/mL"}, {"measurement": "neutralization EC90", "setting": "[2]", "result": "> 100", "unit": "µg/mL"}, {"measurement": "neutralization EC50", "setting": "[3]", "result": "> 100", "unit": "µg/mL"}, {"measurement": "neutralization EC90", "setting": "[3]", "result": "> 100", "unit": "µg/mL"}, {"measurement": "neutralization EC50", "setting": "[4]", "result": "> 100", "unit": "µg/mL"}, {"measurement": "neutralization EC90", "setting": "[4]", "result": "> 100", "unit": "µg/mL"}]}]}
